Source: the nanobody polyreactivity screen of Harvey et al. (2022)

Assay: yeast display, Sf9 membrane polyspecificity reagent, FACS + sequencing; frameworks hold sequencing errors
In short: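 A nanobody's polyreactivity label depends on the gate it was sorted from. Yeast display cells were stained with 10% biotinylated, detergent-solubilized Sf9 membrane reagent for 1 hour at 4 °C, enriched on streptavidin microbeads and sorted by FACS. The low and high (top ~1%) gates were set on anti-HA fluorescence for expression and streptavidin fluorescence for reagent binding.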

| Sequence | polyreactivity (PSR sort gate) |
| --- | --- |
| QVQLVESGGGLVQAGGRLRLSCAASGITFYSYAMGRYRQAPGKERELVAAISTTVGSTYYADYVKGRFTISRDNPNNTVYLQMNSLKPEDTAVYYCNSYSVYAWIEYNYWGQGTQVTVSS | low polyreactivity |
| QVQLVESGGGLVQAGGSLRLSCAASGLIFSVYAMGWYRQAPGKERELVARISINGGSTYYADSVKGRFTISRDNAKNTVYLQMNSLKPEDTAVYYCNAVRITHYVRYYYWGQGTQVTVSS | high polyreactivity |
| QVQLVESVGGLVQAGGSIRLSCAASGRIIDVNAMGWYRQAPGKERELVAAIRSGGRTNYADSVKGRFTISRDNAKNTVYLQMNSLKPEDTAVYYCGAVVWSSLDDYWGQGTQVTVSS | high polyreactivity |
| QVQLVESGGGLVQAGGSLRLSCAASGRIFVINAMGWYRQAPGKERELVADITWSGGSTYADSVKGRFTISRDNAKNTVYLLMNSLNPADTAVSYCAAVYLRVDRYLQVYRYDYWGQGTQVTVSS | high polyreactivity |
| QVQLVESGGGLVQAGGSLRLSCAASGSTSESNAMGWYRQAPGKERELVAAIRSSGGGTYYADSVKGRFTISRDNAKNTVYLQMNSLKPEDTAVYYCAKDVPEDYEFYYWGQGTQVTVSS | low polyreactivity |
| QVQLVESGGGLVQAGGSLRLSCAASGSTFSYNAMGWYRPAPGKERELVAAISGSGGTTYYADSVKGRFTISRDNAKNTVYLQMNSLKPEDTAVYYCNAYVRRTRDYDYWGQGTQVTVSS | high polyreactivity |
| QDQLVESGGGLVQAGGSLRLSCSATGRIFRSYAMGWYRQAPGKERELVASITWRGSSTYYADSVKGRFTISRDNAKNTVYLQMNSRKPEDTAVYYCAKEGYLYLWRYDYWGQGTQVTVSS | high polyreactivity |
| QVQLVESGGGLVQAGGSLRLSCAASGSIFGIYAMGWYRQAPGKERELVAAISRGGSTYYADSVKGRFTISRDNAKNTVYLQMNSLKPEDTAVYYCNAKLIVTPGRGDYWGQGTQVTVSS | high polyreactivity |
| QVQLVESGGGLVQAGGSLRLSCAASGFTFKRYAMGWYRQAPGKERELVAAISWSGGSTYYADSVKGRFTISRDNAKNTVYLQMNSLKPEDTAVYYCNAVCRFSTRREYWGQGTQVTVSS | high polyreactivity |
| QVQLVESGGGLVQAGGSLRLSCAASGYTFYRYAMGWYRQAPGKERELVARISRSGGSTFYADSVKGRFTISRDNAKNTVYLQMNSLKPEDTAVYYCNAKQYSPYYLVIYHYWGQGTQVTVSS | high polyreactivity |
| QVQLVESGGGLVQAGGRLRLSCAASGFTFHNNVMGWYRQAPGKERELVATISKSGGSTYYADSVKGRFTISRDHAKNTVYLQMNSLKPEDTAVYYCARRYRDYGRYGYWGQGTQVTVSS | high polyreactivity |
| QVQLVESGGGLVQAGGSHRLSCPASGLTFYSNAMGWYRQSPGKERELVASISYRGGITYYADSLKGRFTISRDNAKNTVYLQMNSLKPEDTAVYYGAAGRKGSMYYWGQGTQVTVSS | high polyreactivity |
| QVHLVESGGGLVQAGGSLRLTCAASGSILAYNAMGWYRQAPGKERELVAAIRLSGGSTYYADSVKGRFTISRDNAKNTVYLQMNSLKPEDTAVYYCARRYYRYDTRKYNYWGQGTKVTVSS | high polyreactivity |
| QVQLVESGGGLVQAGGSLRLSCAASARTFSYYTMGWSRQEPGKARELVARISNRGTNTYYADSVKGRFTISRDNAKNTVYLQMNSLKPEDTAVYYFAKYYYSSIVGYDSWGQGTQLTVSS | low polyreactivity |
| QVQLVESGGGLVQAGGSLRLSCAASGFILKPYAMGWYRQAPWKERELVAAITYSGSSTYYADSVKGRFTISRDNAKNTVYLQMNSLKPEDTAVYYCAARDWSHPRRLFYWGQGTQVTVSS | high polyreactivity |
| QVQLVESGGGLVQAGGSLRLSCAASGLTFGVYAMGWYRPAPGKERELVAAITATGGSTYYADSVKGRFTISRDNAKNTVYLQMNSLKPEDTAVYYCAKPDFYRMGYWGQGTQVTVSS | low polyreactivity |

| Sequence | polyreactivity (PSR sort gate) |
| --- | --- |
| QVQLVESGGGLVQAGGSLRLSCAASGRIFSYYTMGWYRQAPGKERELVAAITSGDSTNYADSVKGRFTISRDNAKNTVYLQMNSLKPEDNAVYYCNARYSWWRSRVGSSHRPDGYWGQGTQVTVSS | high polyreactivity |
| QVQLVESGGGLVQAGGSLRLSCAASGIIFTQNGMGVYRPAPGKERELVAAISWSAGGTYYADSVKGRFTISRDNAKNTVYLQMNSLIPEDTAVYYCNARVYNVFREFNSWGQGTQVTVSS | low polyreactivity |
| QVQLVESGGGFVQAVGSLRLSCAASGSTFPRYVLGWYRQAPGTARELVAAITWRGSTNDADSVKGRFTISRDNAKNTVYLQMNSLKPEDSAVYYCAAAFFARDRKRYNYWGQGTQVTVSS | high polyreactivity |
| QVQLVESGGGLVQAGGSLRLSCGASGSTFIYYVMGWYRQAPGKEREWVASISTGGRTYYADSVKGRFTSSRDNANHPVYVQMHSLKPEETAVDSCAGAIRSFRRPALYYWGQGTQVTVSS | high polyreactivity |
| QVQLVESGGGLVQAGGSLRLTSAASGYIFEEYDMGCYRQAPGKERELVAAIRFSSASTTYADSVKGRFTISRDNAKNTVYLQMNSLKPEDTAVYYCAVKAGDVYSDYDYWGQGTQVTVSS | low polyreactivity |
| QVQLVESGGGLVQAGGSLRLSCAASGSIFVSYAMGWYRQAPGKERELVAAITGRTGSTYYADSVKGRFTISRDNAKNTVYLQMNSLKPEDTAVYYCAARHKQHNRYDYWGHGTQVTVSS | low polyreactivity |
| QVQRVESGGGLVQAGGSLRLSCAASAFTFGANAMGWSRQAPGKERELVAAISVSDGITYYADSVKGRFTISRDNAKNTVYLLMNSLKPEDTAVYYCAAETYGYLFHSYDYWGQGTQVTVSS | low polyreactivity |
| QVQLVESGGGLVQAGGSLRLICAASGSIFTYYVMGWYRQAPGKDRDLVAGISRAGSTNYADSVKGRFTISRDNAKNTVYLQMNSLKPEDTAVYYCAKSVWFVKHRKPHDYWGQGTQVTVSS | low polyreactivity |
| QVQLVESGGGLVQAGGSLRLSCAASGYTFPLYAMGWYRQAAGKERELVADINIGGASTYYADSVKGRFTISRHNAKNTVYLQMNSLKPEESAVYYCAKEYYDGYFPTFDYDYWGQGTQVTVSS | low polyreactivity |
| QVQLVESGGGLDQAGGSLRLSCAASGSIFVNYARGWYRQAPGKERELVAAITRSGGRTYYADSVKGRFTISRDNAKNTVYLQMNSLKPEVTAVYYCAARRGYAGNRDGYWGQGTQVNVSS | high polyreactivity |
| QVQLVDSGGGLVQAGGSIRLSCSPSGGTFGLNSMGWYRQAPGQERELVADIDGRGGSTYYADSVKGRFTISRDNAKNTVYLQMNRLKPEDPAVYYCADLAPFLSVPSELDYWRQGTQVTVSS | low polyreactivity |
| QVQLVESGGGLVQAGGSLRLSCAASGFNFTAYAMGWYRQAPGKERELVAAISSGGSTNYADSVKGRFTISRDNAKNSVYLQMNSLKPEDTAVYYCAALLRGIEYDYWGQGTQVTVSS | high polyreactivity |
| QGQLEESGGCLVQAGGSLRLSCAASGIIFYKNAMGWYRPAPGKERELVAAISGSGGRTYYADSVKGRFTISRDNAKNTVYLQMNSLKPEVTAVSYCAARQPYRHGYESWGQGTQVTVSS | high polyreactivity |
| QVQLVESGGGLVQAGGSLRLSCAASGSIFYVYAMGGYRQAPGKERELVAAISKSGGSTYYADSVKGRFTISRDNAKNTVYLQMNRLKPEDTAVYYCAAYFSYGSIIEDYWGQGTQVTVSS | low polyreactivity |
| QVQLVESGGGLLQAGVSLRLSCASSGRIIDRNAMGWYRQAPGKERELVAAISSSGSTNYADSVKGRFTISRDNAKNTVYLQMNSLKPEDTAVYYCDARWRSVLAAGTRPVSFDYWGQGTQVTVSS | low polyreactivity |
| QVQLVESGGGLVQAGGSLRLSCAASGRTFVRYAMGWYRQAHGKERELVAAIDSSGGRTYYADSVKGRFTISRDNAKNTVYLQMNSLKPEDTAVYYCNARRLASYRGYSWGQGTQVTVSS | high polyreactivity |
